Reference: patent publication US20070086998A1 (GPC BIOTECH, published 2007)
Substitutions are numbered along the chain they refer to.

B1: MS-GPC-8-6-47 (Fab) (Fab, V domains shown)
VH: QVQLKESGPALVKPTQTLTLTCTFSGFSLSTSGVGVGWIRQPPGKALEWLALIDWDDDKYYSTSLKTRLTISKDTSKNQVVLTMTNMDPVDTATYYCARSPRYRGAFDYWGQGTLVTVSS
VL: DIVLTQPPSVSGAPGQRVTISCSGSESNIGSNYVSWYQQLPGTAPKLLIYDNNQRPSGVPDRFSGSKSGTSASLAITGLQSEDEADYYCQSYDYDHYVFGGGTKLTVLG
B2: MS-GPC-8-6-2 (IgG form) (antibody, V domains shown)
VH: B1 VH with Q3E
VL: B1 VL with S35H
B3: MS-GPC-8-6-2 (Fab) (Fab, V domains shown)
VH: B1 VH
VL: B1 VL with S35H
B4: MS-GPC-8-6 (IgG form) (antibody, V domains shown)
VH: B1 VH with Q3E
VL: B1 VL with E26S
B5: MS-GPC-8-27-41 (IgG4 form) (antibody, V domains shown)
VH: B1 VH with Q3E
VL: B1 VL with S31N, S35Q, Y94M, D95N, H96V, Y97H
B6: MS-GPC-8-Fab (Fab, V domains shown)
VH: B1 VH
VL: B1 VL with E26S, Y94M, D95P, H96Q, Y97A
B7: MS-GPC-8-6-19 (Fab) (Fab, V domains shown)
VH: B1 VH
VL: B1 VL with S35A
B8: MS-GPC-8-6-13 (Fab) (Fab, V domains shown)
VH: B1 VH
VL: B1 VL with S31A, S35T
B9: MS-GPC-8-10-57 (IgG4 form) (antibody, V domains shown)
VH: B1 VH with Q3E
VL: B1 VL with S31N, S35Q, Y94L, D95I, H96R, Y97H
B10: MS-GPC-8-6-27 (Fab) (Fab, V domains shown)
VH: B1 VH
VL: B1 VL with E26D, S31A, S35T
B11: MS-GPC-8-27-41 (Fab) (Fab, V domains shown)
VH: B1 VH
VL: B1 VL with S31N, S35Q, Y94M, D95N, H96V, Y97H
B12: MS-GPC-8-6-13 (IgG4 form) (antibody, V domains shown)
VH: B1 VH with Q3E
VL: B1 VL with S31A, S35T
B13: MS-GPC-8-6 (Fab) (Fab, V domains shown)
VH: B1 VH
VL: B1 VL with E26S
B14: MS-GPC-8-10-57 (Fab) (Fab, V domains shown)
VH: B1 VH
VL: B1 VL with S31N, S35Q, Y94L, D95I, H96R, Y97H
B15: MS-GPC-8-27-10 (Fab) (Fab, V domains shown)
VH: B1 VH
VL: B1 VL with S31A, S35N, Y94M, D95N, H96V, Y97H
B16: MS-GPC-8-27-7 (Fab) (Fab, V domains shown)
VH: B1 VH
VL: B1 VL with S31N, S35G, Y94M, D95N, H96V, Y97H
B17: MS-GPC-10-Fab (Fab, V domains shown)
VH: B1 VH with S100Q, P101L, R102H, A106G, Y109L
VL: B1 VL with E26S, Y94L, D95T, H96M, Y97G
B18: MS-GPC-8-17 (Fab) (Fab, V domains shown)
VH: B1 VH
VL: B1 VL with E26S, Y94F, D95S, H96V
B19: MS-GPC-1-Fab (Fab, V domains shown)
VH: B1 VH with S100Q, P101Y, R102G, Y103H, A106G, Y109H
VL: B1 VL with E26S, Y94F, D95N, H96E, Y97S
B20: L243 (antibody, V domains shown)
VH: QIQLVQSGPELKKPGETVKISCKASGFTFTNYGMNWVKQAPGKGLKWMGWINTYTREPTYADDFKGRFAFSLETSASTAYLQINNLKNEDTAKYFCARDITAVVPTGFDYWGQGTTLTVSS
VL: DIQMTQSPASLSVSVGETVTITCRASENIYSNLAWYRQKQGKSPQLLVFAASNLADGVPSRFSGSGSGTQYSLKINSLQSEDFGDYYCQHFWTTPWAFGGGTNLEIK

Target: T1, chimeric DR-IE (human-mouse chimeric MHC class II molecule) (human; murine)
Experiment: cell-based or functional assay

Row | Binder | IC50, IL-2 secretion of T-Hyb 1 cells stimulated by 0401-IE transgenic APC; Fab | Maximum inhibition(%), IL-2 secretion of T-Hyb 1 cells; Fab [%] | IC50, IL-2 secretion of T-Hyb 1 cells stimulated by 0401-IE transgenic APC; IgG [nM] | Maximum inhibition(%), IL-2 secretion of T-Hyb 1 cells; IgG [%]
1 | B1 | 2.6 nM (Fab concentration/2) | 100 | – | –
2 | B2 | – | – | 3.6 | 100
3 | B3 | 4.7 nM (Fab concentration/2) | 100 | – | –
4 | B4 | – | – | 6.7 | 100
5 | B5 | – | – | 0.28 | 100
6 | B6 | 110 nM (Fab concentration/2) | 100 | – | –
7 | B7 | 5.3 nM (Fab concentration/2) | 100 | – | –
8 | B8 | 2.1 nM (Fab concentration/2) | 100 | – | –
9 | B9 | – | – | 0.31 | 100
10 | B10 | 3 nM (Fab concentration/2) | 100 | – | –
11 | B11 | 3.6 nM (Fab concentration/2) | 100 | – | –
12 | B12 | – | – | 0.42 | 100
13 | B13 | 20 nM (Fab concentration/2) | 100 | – | –
14 | B14 | 2.9 nM (Fab concentration/2) | 100 | – | –
15 | B15 | 7.3 nM (Fab concentration/2) | 100 | – | –
16 | B16 | 5.9 nM (Fab concentration/2) | 100 | – | –

Target: T2, HLA-DR on PRIESS cells (DRA*0101/DRB1*0401) (human, UniProt P01903 26-254; P01911 30-266)
T2 MHC II alpha: not shown
T2 MHC II beta: not shown
Experiment: cell-based or functional assay

Row | Binder | EC50 of cell killing for bivalent agent; PRIESS; Fab cross-linked with anti-FLAG M2 [nM] | EC50 of cell killing for bivalent agent; PRIESS; IgG4 [nM]
17 | B3 | 8 | –
18 | B17 | 33 | –
19 | B5 | – | 1.1
20 | B6 | 31 | –
21 | B9 | – | 1.1
22 | B18 | 16 | –
23 | B19 | 54 | –
24 | B11 | 7.7 | –

Target: HLA-DR on LG-2 cells (human)
Experiment: cell-based or functional assay

Row | Binder | EC50 of cell killing for bivalent agent; LG2; IgG4 [nM] | EC50 of cell killing for bivalent agent; LG2; Fab cross-linked with anti-FLAG M2 [nM]
25 | B5 | 1.23 | –
26 | B9 | 1 | –
27 | B11 | – | 7.2
28 | B14 | – | 7.2

Target: T3, human MHC class II DR protein (DRA*0101/DRB1*0401), purified (human, UniProt P01903 26-254; P01911 30-266, limits assumed)
T3 construct: mature; Detergent-solubilised protein purified from PRIESS cell lysate on an LB3.1 column; also called HLA-DR protein
T3 MHC II alpha: not shown
T3 MHC II beta: not shown
Experiment: not stated (Z. A. Nagy, unpublished)

Row | Binder | Kd [nM]
29 | B20 | 10

Target: T2, HLA-DR on PRIESS cells …
Experiment: cell-based or functional assay
Remark: another data set of the same source

Row | Binder | maximum killing capacity against PRIESS cells, cross-linked bivalent fragment [%]
30 | B6 | 84

Target: T1, chimeric DR-IE (human-mouse chimeric …)
Experiment: cell-based or functional assay
Remark: another data set of the same source

Row | Binder | IC50 value for inhibition of T cell proliferation (lymph node cells of chimeric 0401-IE transgenic mice, ovalbumin) [nM]
31 | B5 | 20
32 | B9 | 11

Target: T2, HLA-DR on PRIESS cells …
Experiment: cell-based or functional assay
Remark: another data set of the same source

Row | Binder | % Killing by mAb; PRIESS (DR 4,4); 50 nM, 4 h [%]
33 | B5 | 88
34 | B9 | 93
35 | B12 | 74

Target: HLA-DR on LG-2 cells (human)
Experiment: cell-based or functional assay
Remark: another data set of the same source

Row | Binder | % Killing by mAb; LG-2 (DR 1,1); 50 nM, 4 h [%]
36 | B5 | 87
37 | B9 | 88
38 | B12 | 82
